In paper PMC12197088:

Legend:
[1] = molecular target: nucleolin (NCL), cell surface of MCF-7 (UniProt P19338); assay: flow cytometry; settings: intact MCF-7 cells (apparent cellular Kd); Dulbecco's PBS with CaCl2 and MgCl2, 4.5 g/L glucose, 5 mM MgCl2, 0.1 mg/mL yeast tRNA, 1 mg/mL BSA; on ice 30 min; pH not stated
[2] = molecular target: nucleolin (NCL), cell surface of MCF-7;IGFIIR, cell surface of MCF-7 (UniProt P19338+P11717); assay: flow cytometry; settings: intact MCF-7 cells (apparent cellular Kd); Dulbecco's PBS with CaCl2 and MgCl2, 4.5 g/L glucose, 5 mM MgCl2, 0.1 mg/mL yeast tRNA, 1 mg/mL BSA; on ice 30 min; pH not stated
Chain of nucleolin (NCL), cell surface of MCF-7;IGFIIR, cell surface of MCF-7 (P19338 2-710, chain 1 of 2): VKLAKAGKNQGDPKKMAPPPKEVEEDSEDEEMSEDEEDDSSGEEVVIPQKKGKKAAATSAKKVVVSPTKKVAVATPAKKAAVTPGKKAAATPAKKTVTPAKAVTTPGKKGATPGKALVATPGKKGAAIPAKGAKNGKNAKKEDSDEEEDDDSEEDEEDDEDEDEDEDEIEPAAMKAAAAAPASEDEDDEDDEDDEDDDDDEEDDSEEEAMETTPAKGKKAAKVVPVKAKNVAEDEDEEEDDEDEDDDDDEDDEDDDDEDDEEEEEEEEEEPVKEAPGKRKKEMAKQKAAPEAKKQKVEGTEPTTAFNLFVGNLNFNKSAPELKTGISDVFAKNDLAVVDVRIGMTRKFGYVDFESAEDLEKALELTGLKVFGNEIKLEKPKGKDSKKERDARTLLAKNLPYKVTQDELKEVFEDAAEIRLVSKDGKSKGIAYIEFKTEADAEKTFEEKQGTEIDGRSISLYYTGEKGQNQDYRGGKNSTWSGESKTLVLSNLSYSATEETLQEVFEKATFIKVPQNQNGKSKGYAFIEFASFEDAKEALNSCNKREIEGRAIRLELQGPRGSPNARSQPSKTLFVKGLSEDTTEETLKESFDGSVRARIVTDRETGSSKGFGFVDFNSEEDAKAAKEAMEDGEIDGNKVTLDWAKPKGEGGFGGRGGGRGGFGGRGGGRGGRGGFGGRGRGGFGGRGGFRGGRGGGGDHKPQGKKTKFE
Chain of nucleolin (NCL), cell surface of MCF-7;IGFIIR, cell surface of MCF-7 (P11717 41-2491, chain 2 of 2): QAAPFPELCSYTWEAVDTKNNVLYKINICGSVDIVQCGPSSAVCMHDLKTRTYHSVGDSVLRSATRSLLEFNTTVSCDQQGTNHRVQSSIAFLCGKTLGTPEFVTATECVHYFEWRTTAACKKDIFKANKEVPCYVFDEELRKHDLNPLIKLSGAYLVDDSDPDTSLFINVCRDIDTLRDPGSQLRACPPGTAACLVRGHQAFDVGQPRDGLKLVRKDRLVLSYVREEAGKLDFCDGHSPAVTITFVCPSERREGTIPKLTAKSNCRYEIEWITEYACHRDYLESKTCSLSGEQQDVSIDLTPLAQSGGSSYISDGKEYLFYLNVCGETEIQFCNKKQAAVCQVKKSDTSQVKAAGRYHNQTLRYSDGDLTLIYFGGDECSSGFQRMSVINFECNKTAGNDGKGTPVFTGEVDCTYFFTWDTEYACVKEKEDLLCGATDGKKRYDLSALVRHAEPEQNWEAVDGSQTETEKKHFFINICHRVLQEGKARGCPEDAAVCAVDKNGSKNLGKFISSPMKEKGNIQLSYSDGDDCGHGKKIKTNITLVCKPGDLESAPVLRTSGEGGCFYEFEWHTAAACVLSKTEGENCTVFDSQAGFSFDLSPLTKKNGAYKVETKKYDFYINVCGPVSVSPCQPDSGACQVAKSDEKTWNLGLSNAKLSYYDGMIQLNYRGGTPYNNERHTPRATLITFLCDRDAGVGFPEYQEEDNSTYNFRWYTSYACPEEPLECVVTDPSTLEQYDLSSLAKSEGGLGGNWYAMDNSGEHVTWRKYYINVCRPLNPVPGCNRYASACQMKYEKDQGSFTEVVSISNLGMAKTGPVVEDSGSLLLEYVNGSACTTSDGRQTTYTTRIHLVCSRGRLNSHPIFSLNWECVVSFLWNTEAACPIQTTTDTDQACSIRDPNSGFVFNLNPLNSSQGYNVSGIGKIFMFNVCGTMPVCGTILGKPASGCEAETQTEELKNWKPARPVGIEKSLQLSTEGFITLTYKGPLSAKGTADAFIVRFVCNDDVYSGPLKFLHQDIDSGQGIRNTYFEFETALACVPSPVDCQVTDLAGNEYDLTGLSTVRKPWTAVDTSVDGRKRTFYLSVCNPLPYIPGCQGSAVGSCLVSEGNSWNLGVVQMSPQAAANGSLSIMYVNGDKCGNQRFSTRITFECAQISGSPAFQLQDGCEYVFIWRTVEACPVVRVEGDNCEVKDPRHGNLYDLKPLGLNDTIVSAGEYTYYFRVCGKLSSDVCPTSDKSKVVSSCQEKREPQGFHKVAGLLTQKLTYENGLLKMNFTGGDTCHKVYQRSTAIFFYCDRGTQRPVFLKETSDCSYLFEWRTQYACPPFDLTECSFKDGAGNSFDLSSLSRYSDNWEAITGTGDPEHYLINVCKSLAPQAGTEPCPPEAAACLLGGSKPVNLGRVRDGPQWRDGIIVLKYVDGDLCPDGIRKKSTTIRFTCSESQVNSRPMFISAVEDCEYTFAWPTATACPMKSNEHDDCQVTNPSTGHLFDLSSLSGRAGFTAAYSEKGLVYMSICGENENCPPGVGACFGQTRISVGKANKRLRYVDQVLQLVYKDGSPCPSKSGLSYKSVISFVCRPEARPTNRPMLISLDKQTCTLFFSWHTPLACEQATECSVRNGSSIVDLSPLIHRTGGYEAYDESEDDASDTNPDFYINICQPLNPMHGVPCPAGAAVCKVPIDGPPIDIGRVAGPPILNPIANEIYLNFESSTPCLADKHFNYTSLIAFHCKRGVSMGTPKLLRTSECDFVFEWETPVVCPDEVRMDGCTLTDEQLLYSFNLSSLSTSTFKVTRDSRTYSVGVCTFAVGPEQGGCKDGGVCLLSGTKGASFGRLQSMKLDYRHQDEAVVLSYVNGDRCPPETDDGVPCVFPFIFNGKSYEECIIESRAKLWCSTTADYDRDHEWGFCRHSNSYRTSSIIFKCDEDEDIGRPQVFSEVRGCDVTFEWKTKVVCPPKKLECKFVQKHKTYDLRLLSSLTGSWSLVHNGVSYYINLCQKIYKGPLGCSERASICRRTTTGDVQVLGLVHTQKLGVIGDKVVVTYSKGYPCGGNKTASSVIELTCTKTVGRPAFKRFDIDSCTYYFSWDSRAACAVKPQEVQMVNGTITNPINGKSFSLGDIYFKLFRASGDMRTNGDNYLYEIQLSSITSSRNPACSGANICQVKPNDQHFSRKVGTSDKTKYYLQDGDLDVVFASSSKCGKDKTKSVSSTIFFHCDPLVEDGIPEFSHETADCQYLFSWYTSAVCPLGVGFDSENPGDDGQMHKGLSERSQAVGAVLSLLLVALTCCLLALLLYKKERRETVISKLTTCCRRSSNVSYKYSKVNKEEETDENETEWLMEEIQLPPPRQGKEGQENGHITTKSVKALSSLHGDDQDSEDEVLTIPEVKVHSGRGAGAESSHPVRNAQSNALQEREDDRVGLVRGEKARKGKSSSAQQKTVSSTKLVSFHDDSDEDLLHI

Chain of nucleolin (NCL), cell surface of MCF-7 (P19338 2-710): as the sequence (P19338 2-710, chain 1 of 2) above

Row | Sequence | Kd [1] | Kd [2]
1 | GGTGGTGGTGGTTGTGGTGGTGGTGG [AS1411 (NCL aptamer)] | 137 nM | –
2 | TTTTTTTTTTTTTTTGGGCGCGTAGATGACGAGCAGTCCTAACATCGTTTAGGAC / AAAAAAAAAAAAAAAGGTGGTGGTGGTTGTGGTGGTGGTGG [Mo-AS (monovalent NCL/IGFIIR chimera)] | – | 518 nM
